Data as given in patent US20020065210A1 (Genentech, published 2002).
Each block holds one molecule with its values, some of them ahead of it.

B1: recombinant Fc-tagged DcR3 (expressed as described in Example 7, purified by Protein A chromatography) (Fc fusion)
chain: VAETPTYPWRDAETGERLVCAQCPPGTFVQRPCRRDSPTTCGPCPPRHYTQFWNYLERCRYCNVLCGEREEEARACHATHNRACRCRTGFFAHAGFCLEHASCPPGAGVIAPGTPSQNTQCQPCPPGTFSASSSSSEQCQPHRNCTALGLALNVPGSSSHDTLCTSCTGFPLSTRVPGAEECERAVIDFVAFQDISIKRLQRLLQALEAPEGWGPTPRAGRAALQLKLRRRLTELLGAQDGALLVRLLQALRVARMPGLERSVRERFLPVH
modifications: biotinylated in the FACS assay (sites not given)
notes: also called biotinylated Fc-tagged DcR3; DcR3-IgG; not shown: Fc tag (Fc region of IgG)

Columns and labels:
[1] = target: Fas expressed on human HeLa S3 cells (human) (UniProt P25445); test: cell-based or functional assay
[2] = target: T1, OPG (also referred to as TRANCE, RANKL), full-length, expressed from pRK5 on transiently transfected 293 cells (UniProt O14788 1-317, limits assumed); test: FACS, biotinylated Fc-tagged DcR3 on transiently transfected 293 cells
T1 construct: whole, on cells
T1 sequence (looked up): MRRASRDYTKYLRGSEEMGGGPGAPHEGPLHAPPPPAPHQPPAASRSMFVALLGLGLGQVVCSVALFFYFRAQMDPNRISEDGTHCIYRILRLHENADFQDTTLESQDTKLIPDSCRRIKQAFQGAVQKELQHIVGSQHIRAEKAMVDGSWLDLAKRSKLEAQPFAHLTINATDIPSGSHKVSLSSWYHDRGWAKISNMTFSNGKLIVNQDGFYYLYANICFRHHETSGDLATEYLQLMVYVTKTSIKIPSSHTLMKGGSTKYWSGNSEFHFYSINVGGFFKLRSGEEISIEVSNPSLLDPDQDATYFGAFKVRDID
From the text: (§1) Human 293 cells (ATCC CRL 1573) were transiently transfected with empty pRK5 vector (see Example 5) or pRK5 encoding full-length TNF-alpha [Pennica et al., Nature, 312:724-729 (1984)], Fas ligand [Suda et al., Cell, 75:1169-1178 (1993)], LIGHT [Mauri et al., Immunity, 8:21 (1998)], Apo-2 ligand [[WO 97/25428 published Jul. 17, 1997)], Apo-3 ligand (also referred to as TWEAK) [Marsters et al., Current Biology, 8:525 (1998); Chicheportiche et al., J. Biol. Chem., 272:32401 (1997)], or […] (also referred to as TRANCE, RANKL) [Wong et al., J. Biol. Chem., 272:25190 (1997); Anderson et al., Nature, 390:175 (1997); Lacey et al., Cell, 93:165 (1998)].

[3] = target: T2, Fc-tagged ectodomain of TNFR1 (UniProt P19438 30-211, limits assumed); test: co-immunoprecipitation with protein A-sepharose, anti-Fas ligand immunoblot
T2 construct: extracellular domain; Control immunoadhesin; also called Fc-tagged TNFR1; not shown: Fc tag
T2 sequence (looked up): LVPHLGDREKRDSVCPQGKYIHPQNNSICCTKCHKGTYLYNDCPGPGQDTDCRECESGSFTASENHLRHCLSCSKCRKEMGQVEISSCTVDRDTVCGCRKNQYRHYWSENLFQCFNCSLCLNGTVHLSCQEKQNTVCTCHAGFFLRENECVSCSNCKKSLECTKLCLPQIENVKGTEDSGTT
Procedure: Precipitates were resolved by SDS polyacrylamide gel electrophoresis (4-20% gradient) under reducing conditions (25 mM dithiothreitol), and visualized by immunoblot, followed by enhanced chemiluminescence detection (Amersham) with rabbit polyclonal anti-Fas ligand antibody (Oncogene Research Products) at 2 microgram/ml.

[4] = target: B1; test: FACS, biotinylated Fc-tagged DcR3 on transiently transfected 293 cells
From the text: as §1

Chain of Fas expressed on human HeLa S3 cells (human) (P25445 26-335): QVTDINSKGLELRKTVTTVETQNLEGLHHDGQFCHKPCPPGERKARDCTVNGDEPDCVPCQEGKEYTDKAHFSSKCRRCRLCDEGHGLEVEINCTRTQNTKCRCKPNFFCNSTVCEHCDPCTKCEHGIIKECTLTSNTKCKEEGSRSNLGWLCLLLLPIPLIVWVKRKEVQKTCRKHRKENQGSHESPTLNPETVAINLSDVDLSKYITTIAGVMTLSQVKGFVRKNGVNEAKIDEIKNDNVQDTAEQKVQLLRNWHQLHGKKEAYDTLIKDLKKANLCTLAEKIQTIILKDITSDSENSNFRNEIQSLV

Molecule: full-length Fas ligand expressed from pRK5 on transiently transfected cells (from UniProt P48023 1-281)
- apoptosis of transfected HeLa S3 cells (annexin binding by FACS) [1]: 25%

Molecule: B1
- binding result [2]: no binding

Now from value to molecule:

- binding result [3]: no binding
B2: purified, soluble Fas ligand (Alexis Biochemicals) (ligand, UniProt P48023 103-281, looked up)
chain: QLFHLQKELAELRESTSQMHTASSLEKQIGHPSPPPEKKELRKVAHLTGKSNSRSMPLEWEDTYGIVLLSGVKYKKGGLVINETGLYFVYSKVYFRGQSCNNLPLSHKVYMRNSKYPQDLVMMEGKMMSYCTTGQMWARSSYLGAVFNLTSADHLYVNVSELSLVNFEESQTFFGLYKL
notes: Commercial soluble form

- binding result [4]: no binding
B3: full-length Apo-3 ligand (also referred to as TWEAK) expressed from pRK5 on transiently transfected 293 cells (ligand, UniProt O43508 1-249, looked up)
chain: MAARRSQRRRGRRGEPGTALLVPLALGLGLALACLGLLLAVVSLGSRASLSAQEPAQEELVAEEDQDPSELNPQTEESQDPAPFLNRLVRPRRSAPKGRKTRARRAIAAHYEVHPRPGQDGAQAGVDGTVSGWEEARINSSSPLRYNRQIGEFIVTRAGLYYLYCQVHFDEGKAVYLKLDLLVDGVLALRCLEEFSATAASSLGPQLRLCQVSGLLALRPGSSLRIRTLPWAHLKAAPFLTYFGLFQVH
notes: whole, on cells
